Data reported in publication PMC9061753, “Mre11-Rad50 oligomerization promotes DNA double-strand break repair” (Nature Communications, 2022).

How the values were obtained:
Mre11-Rad50 (MRwt) [1] = target: T1, Mre11-Rad50 (MRwt) (S. cerevisiae, UniProt P32829;P12753 1-692;1-1312); assay: EMSA; ATPgS, 5 mM Mg2+, 30 mM NaCl; mean of the 2 visible of 3 replicates (6.248, 7.406); apparent; Oligo EMSA: 25 mM Tris acetate pH 7.5, 1 mM DTT, 0.25 mg/ml BSA, 5 mM Mg acetate, 1 mM ATPgS, 30 mM NaCl, 30 C 15 min, 100 nM bp DNA; plasmid EMSA: 80 mM KCl, plus 1 mM MnCl2, 30 C 1 h; mass photometry 25 mM KCl; conditions: protein: recombinant; tags: Mre11-6xHis; Rad50 untagged; chain copies: 2;2; label: 3'-32P on BIO100C; blunt before 3' labeling
MRho = MRho (S. cerevisiae, UniProt P32829;P12753 1-692;1-1312, N121A;D124N;Rad50:); assay: mass photometry; 25 mM KCl; Oligo EMSA: 25 mM Tris acetate pH 7.5, 1 mM DTT, 0.25 mg/ml BSA, 5 mM Mg acetate, 1 mM ATPgS, 30 mM NaCl, 30 C 15 min, 100 nM bp DNA; plasmid EMSA: 80 mM KCl, plus 1 mM MnCl2, 30 C 1 h; mass photometry 25 mM KCl; conditions: protein: recombinant, tags: Mre11-6xHis, Rad50 untagged, chain copies: 2;2
MRlo = MRlo (S. cerevisiae, UniProt P32829;P12753 1-692;1-1312, L116A;I119A;T127A;L128A;Rad50:); assay: mass photometry; 25 mM KCl, 5 nM protein, 2.5 nM DNA; Oligo EMSA: 25 mM Tris acetate pH 7.5, 1 mM DTT, 0.25 mg/ml BSA, 5 mM Mg acetate, 1 mM ATPgS, 30 mM NaCl, 30 C 15 min, 100 nM bp DNA; plasmid EMSA: 80 mM KCl, plus 1 mM MnCl2, 30 C 1 h; mass photometry 25 mM KCl; conditions: protein: recombinant; tags: Mre11-6xHis; Rad50 untagged; chain copies: 2;2; 1-nt 5' overhangs as printed
Mre11-Rad50 (MRwt) [2] = target: T1, Mre11-Rad50 (MRwt); assay: EMSA; ATPgS, 5 mM Mg2+, 30 mM NaCl; mean of the 2 visible of 3 replicates (4.948, 4.099); apparent; Oligo EMSA: 25 mM Tris acetate pH 7.5, 1 mM DTT, 0.25 mg/ml BSA, 5 mM Mg acetate, 1 mM ATPgS, 30 mM NaCl, 30 C 15 min, 100 nM bp DNA; plasmid EMSA: 80 mM KCl, plus 1 mM MnCl2, 30 C 1 h; mass photometry 25 mM KCl; conditions: protein: recombinant; tags: Mre11-6xHis; Rad50 untagged; chain copies: 2;2; label: 3'-32P on top strand; 1-nt 5' overhangs as printed
Mre11-Rad50 (MRwt) [3] = target: T1, Mre11-Rad50 (MRwt); assay: EMSA; ATPgS, 5 mM Mg2+, 30 mM NaCl; mean of the 2 visible of 3 replicates (7.787, 6.135); apparent; Oligo EMSA: 25 mM Tris acetate pH 7.5, 1 mM DTT, 0.25 mg/ml BSA, 5 mM Mg acetate, 1 mM ATPgS, 30 mM NaCl, 30 C 15 min, 100 nM bp DNA; plasmid EMSA: 80 mM KCl, plus 1 mM MnCl2, 30 C 1 h; mass photometry 25 mM KCl; conditions: protein: recombinant; tags: Mre11-6xHis; Rad50 untagged; chain copies: 2;2; label: 3'-32P; blunt before 3' labeling
Mre11-Rad50-Xrs2 (MRX) = Mre11-Rad50-Xrs2 (MRX) (S. cerevisiae, UniProt P32829;P12753;P33301 1-692;1-1312;1-854); assay: mass photometry; 25 mM KCl; Oligo EMSA: 25 mM Tris acetate pH 7.5, 1 mM DTT, 0.25 mg/ml BSA, 5 mM Mg acetate, 1 mM ATPgS, 30 mM NaCl, 30 C 15 min, 100 nM bp DNA; plasmid EMSA: 80 mM KCl, plus 1 mM MnCl2, 30 C 1 h; mass photometry 25 mM KCl; conditions: protein: recombinant; tags: His-Mre11; Rad50 untagged; Xrs2-FLAG; chain copies: 2;2;1; blunt
Mre11-Rad50 (MRwt) [4] = target: T1, Mre11-Rad50 (MRwt); assay: mass photometry; 25 mM KCl; two dimers per DNA detected; Oligo EMSA: 25 mM Tris acetate pH 7.5, 1 mM DTT, 0.25 mg/ml BSA, 5 mM Mg acetate, 1 mM ATPgS, 30 mM NaCl, 30 C 15 min, 100 nM bp DNA; plasmid EMSA: 80 mM KCl, plus 1 mM MnCl2, 30 C 1 h; mass photometry 25 mM KCl; conditions: protein: recombinant; tags: Mre11-6xHis; Rad50 untagged; chain copies: 2;2; blunt

Chain of MRho (P32829 whole entry, stated change not applied, one chain of several): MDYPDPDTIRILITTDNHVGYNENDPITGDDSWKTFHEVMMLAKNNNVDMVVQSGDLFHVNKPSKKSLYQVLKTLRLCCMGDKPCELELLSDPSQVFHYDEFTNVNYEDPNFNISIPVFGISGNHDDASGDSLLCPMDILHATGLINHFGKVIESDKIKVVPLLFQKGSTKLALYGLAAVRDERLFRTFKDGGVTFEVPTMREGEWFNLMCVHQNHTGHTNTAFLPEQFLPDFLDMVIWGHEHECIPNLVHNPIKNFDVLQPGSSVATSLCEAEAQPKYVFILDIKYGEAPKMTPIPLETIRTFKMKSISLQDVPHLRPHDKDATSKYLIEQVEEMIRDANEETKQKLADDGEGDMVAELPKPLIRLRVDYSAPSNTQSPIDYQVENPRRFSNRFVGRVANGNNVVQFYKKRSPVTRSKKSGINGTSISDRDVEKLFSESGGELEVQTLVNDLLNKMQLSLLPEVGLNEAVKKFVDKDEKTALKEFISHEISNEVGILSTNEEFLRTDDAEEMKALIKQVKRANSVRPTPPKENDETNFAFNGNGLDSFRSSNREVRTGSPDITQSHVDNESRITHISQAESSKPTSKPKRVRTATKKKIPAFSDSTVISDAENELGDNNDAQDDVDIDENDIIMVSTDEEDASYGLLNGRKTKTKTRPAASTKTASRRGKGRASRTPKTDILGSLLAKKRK
Chain of Mre11-Rad50-Xrs2 (MRX) (P32829 whole entry, chain 1 of 2): as the sequence (P32829 whole entry, stated change not applied, one chain of several) above
Chain of Mre11-Rad50-Xrs2 (MRX) (P33301 whole entry, chain 3 of 2): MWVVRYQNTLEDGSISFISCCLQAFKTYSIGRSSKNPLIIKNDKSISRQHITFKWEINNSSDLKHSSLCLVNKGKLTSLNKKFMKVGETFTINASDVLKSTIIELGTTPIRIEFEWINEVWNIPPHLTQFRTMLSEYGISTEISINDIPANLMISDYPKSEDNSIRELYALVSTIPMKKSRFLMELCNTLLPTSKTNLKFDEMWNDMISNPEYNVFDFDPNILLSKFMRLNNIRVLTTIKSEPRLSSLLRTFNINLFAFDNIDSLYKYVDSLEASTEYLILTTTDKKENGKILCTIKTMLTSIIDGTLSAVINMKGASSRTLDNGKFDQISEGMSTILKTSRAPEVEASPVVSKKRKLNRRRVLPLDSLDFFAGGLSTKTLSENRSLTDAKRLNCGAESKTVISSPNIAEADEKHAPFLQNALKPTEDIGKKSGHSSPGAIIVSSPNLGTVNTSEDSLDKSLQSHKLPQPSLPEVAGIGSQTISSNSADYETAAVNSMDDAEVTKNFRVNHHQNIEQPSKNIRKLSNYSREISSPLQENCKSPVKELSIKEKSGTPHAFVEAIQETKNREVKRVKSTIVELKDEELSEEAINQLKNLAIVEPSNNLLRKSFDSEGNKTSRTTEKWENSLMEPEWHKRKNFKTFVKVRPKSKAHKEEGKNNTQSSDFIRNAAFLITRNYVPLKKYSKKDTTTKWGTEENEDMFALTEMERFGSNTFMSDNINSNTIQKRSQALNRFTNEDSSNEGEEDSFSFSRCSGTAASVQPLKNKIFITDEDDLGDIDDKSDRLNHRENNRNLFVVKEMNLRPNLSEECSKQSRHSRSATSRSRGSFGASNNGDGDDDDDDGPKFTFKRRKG
Chain of MRlo (P32829 whole entry, stated change not applied, one chain of several): as the sequence (P32829 whole entry, stated change not applied, one chain of several) above

B1: 100 bp EMSA (BIO100C/BIO100) (dsDNA)
DNA 1: GATGCAGGAGGCTGCTACGACCATGGCAGAAGATTATGAGGTGGAGTACGCGCCCGGGGAGCCCAAGGGCACGCCCTGGCACCCGCACCGCGGCACTTAC
DNA 2: GTAAGTGCCGCGGTGCGGGTGCCAGGGCGTGCCCTTGGGCTCCCCGGGCGCGTACTCCACCTCATAATCTTCTGCCATGGTCGTAGCAGCCTCCTGCATC
modifications: biotin position marked in table
Work on B1 yielded a Kd (Mre11-Rad50 (MRwt) [1]) of about 6.83 nM.

B2: 197 bp mass photometry (dsDNA)
DNA 1: GCTTCGTATGTTTCTCCTGCTTATCACCTTCTTGAAGGCTTCCCATTCATTCAGGAACCGCCTTCTGGTGATTTGCAAGAACGCGTACTTATTCGCCACCATGATTATGACCAGTGTTTCCAGTCCGTTCAGTTGTTGCAGTGGAATAGTCAGGTTAAATTTAATGTGACCGTTTATCGCAATCTGCCGACCACTCG
DNA 2: GCGAGTGGTCGGCAGATTGCGATAAACGGTCACATTAAATTTAACCTGACTATTCCACTGCAACAACTGAACGGACTGGAAACACTGGTCATAATCATGGTGGCGAATAAGTACGCGTTCTTGCAAATCACCAGAAGGCGGTTCCTGAATGAATGGGAAGCCTTCAAGAAGGTGATAAGCAGGAGAAACATACGAAG
B2: binds (MRho; 1-nt 5' overhangs as printed); no binding (MRlo).

B3: 197 bp EMSA (197mer) (dsDNA)
DNA 1: GCTTCGTATGTTTCTCCTGCTTATCACCTTCTTGAAGGCTTCCCATTCATTCAGGAACCGCCTTCTGGTGATTTGCAAGAACGCGTACTTATTCGCCACCATGATTATGACCAGTGTTTCCAGTCCGTTCAGTTGTTGCAGTGGAATAGTCAGGTTAAATTTAATGTGACCGTTTATCGCAATCTGCCGACCACTCG
DNA 2: GCGAGTGGTCGGCAGATTGCGATAAACGGTCACATTAAATTTAACCTGACTATTCCACTGCAACAACTGAACGGACTGGAAACACTGGTCATAATCATGGTGGCGAATAAGTACGCGTTCTTGCAAATCACCAGAAGGCGGTTCCTGAATGAATGGGAAGCCTTCAAGAAGGTGATAAGCAGGAGAAACATACGAAG
With B3 the Kd (Mre11-Rad50 (MRwt) [2]) was about 4.52 nM.

B4: 70 bp EMSA (PC210/PC211) (dsDNA)
DNA 1: GTAAGTGCCGCGGTGCGGGTGCCAGGGCGTGCCCTTGGGCTCCCCGGGCGCGTACTCCACCTCATGCATC
DNA 2: GATGCATGAGGTGGAGTACGCGCCCGGGGAGCCCAAGGGCACGCCCTGGCACCCGCACCGCGGCACTTAC
modifications: biotin positions marked in table
With B4 the Kd (Mre11-Rad50 (MRwt) [3]) was about 6.96 nM.

B5: 106 bp mass photometry (dsDNA)
DNA 1: TTAGCTCCTACGCGGAACGAGACCTACCAATATACCTATATCAATGGCCTCCCACGCATAAGCCTCGGGAGCTCGACCATCTGGTCTCATCGGACACTTAGGACCA
DNA 2: TGGTCCTAAGTGTCCGATGAGACCAGATGGTCGAGCTCCCGAGGCTTATGCGTGGGAGGCCATTGATATAGGTATATTGGTAGGTCTCGTTCCGCGTAGGAGCTAA
B5: binds (MRho; blunt); binds (Mre11-Rad50-Xrs2 (MRX)); binds (Mre11-Rad50 (MRwt) [4]).
